We go through one molecule from patent publication US5886163, “HIV-1 antigens, antibody compositions related thereto, and therapeutic and prophylactic uses thereof” (Progenics Pharmaceuticals, Inc., dated 1999).

The target of the assay is human CD4 on the membrane surface of DG44 #3 cells (human, UniProt P01730). Briefly: FACS on DG44 #3 cells (CHO cells transfected with human CD4 cDNA).

B1: HIV-1 gp120LAI (ligand)
chain: not shown
As to B1, the binding result is “binds”.
